Laboratory results published in publication PMC5800818 (2018).
Substitutions are numbered along the chain they refer to. Values belong to the binder of their own block, whether it stands above or below them.

Assays:
[1] = target: T1, rhodamine-labeled Mdm2^216–302 (human, UniProt Q00987-11 216-302, rhodamine label (site not stated)); test: FP
[2] = target: T1, rhodamine-labeled Mdm2^216–302; test: FP; remark: listed apart in the source
[3] = target: T1, rhodamine-labeled Mdm2^216–302; test: FP; remark: listed apart in the source
[4] = target: T1, rhodamine-labeled Mdm2^216–302; test: FP; GPpY peptide preassembled with PTBi

T1 sequence (Q00987 210-296): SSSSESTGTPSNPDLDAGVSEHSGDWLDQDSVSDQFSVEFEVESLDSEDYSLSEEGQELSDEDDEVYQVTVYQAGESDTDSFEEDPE

Kd [1]: 5.6 µM
B1: Numb isoform-1 full-length, purified (natural protein)
chain: MNKLRQSFRRKKDVYVPEASRPHQWQTDEEGVRTGKCSFPVKYLGHVEVDESRGMHICEDAVKRLKAERKFFKGFFGKTGKKAVKAVLWVSADGLRVVDEKTKDLIVDQTIEKVSFCAPDRNFDRAFSYICRDGTTRRWICHCFMAVKDTGERLSHAVGCAFAACLERKQKREKECGVTATFDASRTTFTREGSFRVTTATEQAEREEIMKQMQDAKKAETDKIVVGSSVAPGNTAPSPSSPTSPTSDATTSLEMNNPHAIPRRHAPIEQLARQGSFRGFPALSQKMSPFKRQLSLRINELPSTMQRKTDFPIKNAVPEVEGEAESISSLCSQITNAFSTPEDPFSSAPMTKPVTVVAPQSPTFQANGTDSAFHVLAKPAHTALAPVAMPVRETNPWAHAPDAANKEIAATCSGTEWGQSSGAASPGLFQAGHRRTPSEADRWLEEVSKSVRAQQPQASAAPLQPVLQPPPPTAISQPASPFQGNAFLTSQPVPVGVVPALQPAFVPAQSYPVANGMPYPAPNVPVVGITPSQMVANVFGTAGHPQAAHPHQSPSLVRQQTFPHYEASSATTSPFFKPPAQHLNGSAAFNGVDDGRLASADRHTEVPTGTCPVDPFEAQWAALENKSKQRTNPSPTNPFSSDLQKTFEIEL

Kd [2]: 5.1 µM
Binder: GMHICEDAVKRLKAERKFFKGFFGKTGKKAVKAVLWVS (other) [thioredoxin-scaffolded Numb^54–91, His fusion]

Kd [1]: 155 µM
B2: Numb-PTBo, purified (domain or fragment)
chain: SRPHQWQTDEEGVRTGKCSFPVKYLGHVEVDESRGMHICEDAVKRLKATGKKAVKAVLWVSADGLRVVDEKTKDLIVDQTIEKVSFCAPDRNFDRAFSYICRDGTTRRWICHCFMAVKDTGERLSHAVGCAFAACLERKQKREKE

Kd [3]: 43.5 µM
B3: PTBi F75-76A (protein)
chain: SRPHQWQTDEEGVRTGKCSFPVKYLGHVEVDESRGMHICEDAVKRLKAERKFFKGAAGKTGKKAVKAVLWVSADGLRVVDEKTKDLIVDQTIEKVSFCAPDRNFDRAFSYICRDGTTRRWICHCFMAVKDTGERLSHAVGCAFAACLERKQKREKE

Kd [3]: 29 µM
B4: PTBi F71-72A (protein)
chain: B3 chain with F52A, F53A, A56F, A57F

Kd [3]: 60.6 µM
B5: PTBi F71-72-75-76A (protein)
chain: B3 chain with F52A, F53A

Kd [2]: 6.1 µM | Kd [1]: 5.5 µM
B6: Numb-PTBi (Numb^20–175), purified (domain or fragment)
chain: B3 chain with A56F, A57F

Kd [4]: 5.8 µM
B7: PTBi in complex with GPpY (complex)
chain 1: B3 chain with A56F, A57F
chain 2: AYIGPYL
modifications: phosphotyrosine at position 6 (AYIGPpYL)

Kd [2]: 86 µM
Binder: KRLKAERKFFKGFFGKTGKK (other) [thioredoxin-scaffolded Numb^63–82, His fusion]
